Consider 8 molecules from US20030175273A1 (Kyowa Kirin, published 2003).

Numbering of substitutions follows the chain as printed. Ends that are not written are not given here.

The chains are these.
T1: BSA-Compound 1 (human CCR4 extracellular region peptide Compound 1 conjugated with BSA) (human, also: conjugated to BSA through SMCC, site not given here)
T1 construct: the claims speak of positions 13 to 29; ELISA antigen; also called CCR4 partial peptide
T1 peptide: DESIYSNYYLYESIPKPC

T2: human CC chemokine receptor 4 (CCR4) on CCR4/EL-4 cells (human, UniProt P51679 1-360)
T2 construct: also called hCCR4; human CCR4-high-expressing cell
T2 sequence: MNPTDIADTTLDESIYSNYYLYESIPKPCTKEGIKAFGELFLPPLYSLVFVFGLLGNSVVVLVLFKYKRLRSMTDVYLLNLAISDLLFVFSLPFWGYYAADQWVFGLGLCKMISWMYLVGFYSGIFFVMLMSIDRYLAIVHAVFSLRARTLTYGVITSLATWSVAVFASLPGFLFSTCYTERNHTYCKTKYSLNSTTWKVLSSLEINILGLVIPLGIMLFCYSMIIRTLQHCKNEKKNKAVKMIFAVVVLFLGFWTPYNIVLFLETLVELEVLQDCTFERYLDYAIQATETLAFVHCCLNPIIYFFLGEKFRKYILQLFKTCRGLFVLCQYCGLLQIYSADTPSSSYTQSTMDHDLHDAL

T3: biotinylated Compound 1 (biotinylated CCR4 partial peptide) (human, also: biotinylated, site not given here)
T3 construct: Same peptide as in BSA-Compound 1
T3 peptide: DESIYSNYYLYESIPKPC

B1: anti-CCR4 CDR-grafted antibody Ga10LV1 (antibody, human IgG1, V domains shown)
VH: EVQLVESGGDLVQPGRSLRLSCAASGFIFSNYGMSWVRQAPGKGLEWVATISSASTYSYYPDSVKGRFTISRDNAKNSLYLQMNSLRVEDTALYYCARHSDGNFAFGYWGQGTLVTVSS
VL: DVVMTQSPLSLPVTPGEPASISCRSSRNIVHINGDTYLEWYLQKPGQSPQLLIYKVSNRFSGVPDRFSGSGSGTDFTLKISRVEAEDVGVYYCFQGSLLPWTFGQGTKVEIK
notes: Tested as COS-7 supernatant and as purified antibody from YB2/0; also called pKM2160Ga10LV1
B2: anti-CCR4 CDR-grafted antibody Ga12LV1 (antibody, human IgG1, V domains shown)
VH: B1 VH with G42D, G44R
VL: B1 VL
notes: Tested as COS-7 supernatant and as purified antibody from YB2/0; also called pKM2160Ga12LV1
B3: anti-CCR4 CDR-grafted antibody Ga10LV3 (antibody, human IgG1, V domains shown)
VH: B1 VH
VL: B1 VL with V3L
notes: Tested as COS-7 supernatant and as purified antibody from YB2/0; also called pKM2160Ga10LV3
B4: anti-CCR4 CDR-grafted antibody Ga11LV3 (antibody, human IgG1, V domains shown)
VH: B1 VH with A97G
VL: B1 VL with V3L
notes: Tested as COS-7 supernatant and as purified antibody from YB2/0; also called pKANTEX2160Ga11LV3; antibody of producing cell KM8760 (FERM BP-8130)
B5: anti-CCR4 CDR-grafted antibody Ga12LV3 (antibody, human IgG1, V domains shown)
VH: B1 VH with G42D, G44R
VL: B1 VL with V3L
notes: Tested as COS-7 supernatant and as purified antibody from YB2/0; also called pKANTEX2160Ga12LV3; antibody of producing cell KM8759 (FERM BP-8129)
B6: anti-CCR4 CDR-grafted antibody Ga11LV1 (antibody, human IgG1, V domains shown)
VH: B1 VH with A97G
VL: B1 VL
notes: Tested as COS-7 supernatant and as purified antibody from YB2/0; also called pKM2160Ga11 LV1
B7: anti-CCR4 CDR-grafted antibody Ga13LV1 (antibody, human IgG1, V domains shown)
VH: B1 VH with G42D, G44R, A97G
VL: B1 VL
notes: Tested as COS-7 supernatant and as purified antibody from YB2/0; also called pKM2160Ga13LV 1
B8: anti-CCR4 CDR-grafted antibody Ga13LV3 (antibody, human IgG1, V domains shown)
VH: B1 VH with G42D, G44R, A97G
VL: B1 VL with V3L
notes: Tested as COS-7 supernatant and as purified antibody from YB2/0; also called pKM2160Ga13LV3

The first assay has as its target T1, BSA-Compound 1 (human CCR4 …). In words: ELISA on BSA-Compound 1, purified antibody. On the technique in general: In an ELISA, binding on a coated surface is turned into a signal by an enzyme label.
For the molecule B1, the binding result is “binds”.
The same measure, in the same setting: next, B2: “binds”; B3: “binds”.
The same measure, in the same setting: as for B4, the entry is “binds”.
B5: the binding result is on record as “binds”.
Same read-out and setting: as for B6, the entry is “binds”.

For a further assay the target is unchanged. Kind of assay: ELISA on BSA-Compound 1, COS-7 culture supernatant. How it is done: Into a 96 well ELISA plate (manufactured by Greiner), 0.05 μg/ml of the prepared conjugate was dispensed in at 50 μl/well and allowed to stand at 4° C. overnight for adsorption. After washing with PBS, PBS containing 1% BSA (hereinafter referred to as “1% BSA-PBS”) was added thereto at 100 μl/well and allowed to react at room temperature for 1 hour to block the remaining active groups. After washing each well with PBS containing 0.05% Tween 20 (hereinafter referred to as “Tween-PBS”), a culture supernatant of the transformant was added at 50 μl/well and allowed to react at room temperature for 1 hour. After the reaction and subsequent washing of each well with Tween-PBS, a peroxidase-labeled goat anti-human IgG(γ) antibody solution (manufactured by American Qualex) diluted 6,000 folds with 1% BSA-PBS was added as a secondary antibody solution in 50 μl/well portions and allowed to react at room temperature for 1 hour After the reaction and subsequent washing with Tween-PBS, an ABTS substrate solution (a solution prepared by dissolving 0.55 g of […] ammonium in 1 liter of 0.1 M citrate buffer (pH 4.2) and adding 1 μl/ml hydrogen peroxide just before use) was added at 50 μl/well to develop color, and the reaction was stopped 20 minutes thereafter by adding 5% SDS solution at 50 μl/well. Thereafter, absorbance at 415 nm was measured.
B7: the binding result is recorded as “binds”.
On to B8, for which the binding result is given as “binds”.

A further assay addresses T2, human CC chemokine receptor 4 (CCR4) on …. In words: flow cytometry on CCR4/EL-4 cells, antibody at 10 µg/ml. Here is the method: Into a 96 well plate, 2×10⁵ or more of CCR4/EL-4 cells, CCR4-high-expressing cells obtained in Reference Example 3, were dispensed. An antibody solution was prepared by diluting each of the purified antibodies and a human immunoglobulin (manufactured by Welfide) for preventing nonspecific staining to give concentrations of 10 μg/ml and 3.75 mg/ml, respectively, with a buffer for FACS, and the antibody solution was added at 100 μl/well and allowed to react for 30 minutes in ice. As a negative control, 10 μg/ml of an anti-human IL-5 receptor a chain antibody (WO 97/10354) was used. After washing twice with 200 μl/well of the buffer for FACS, a PE-labeled anti-human IgG antibody (manufactured by Coulter) diluted 100 times was added at 50 μl/well. After the reaction in ice under shading and subsequent washing three times with 200 μl/well of the buffer for FACS, the reaction product was suspended in 500 μl of the buffer for FACS and the fluorescence intensity was measured using a flow cytometer.
In the case of B1, the binding result is “binds”.
B2: the binding result is on record as “binds”.
Consider B7, for which the binding result is reported as “binds”.
B3: the binding result is reported as “binds”.
The same measure, in the same setting: next, B4: “binds”; B5: “binds”; B6: “binds”.
Regarding B8, the binding result is on record as “binds”.

A further assay has as its target T3, biotinylated Compound 1 (biotinylated …). Kind of assay: BIAcore 2000, biotinylated Compound 1 on sensor tip SA, antibody at 4 µg/ml. Here is the method: In order to measure the binding activity in more detail, the binding activity of various purified antibodies was measured using BIAcore 2000 (manufactured by BIACORE) as follows. In this case, HBS-EP (manufactured by BIACORE) was used as the buffer for diluting samples and for the measurement. First, 5 μl of 0.05 μg/ml solution of Compound 1 as a biotinylated CCR4 partial peptide was added to a sensor tip SA (manufactured by BIACORE) at a flow rate of 5 μl/minute and immobilized on the sensor tip.
To the prepared biotinylated compound 1 -immobilized sensor tip, 20 μl of 4 μg/ml solution of each of the purified antibodies was added at a flow rate of 5 μl/minute, and after completion of the addition, the dissociation reaction was monitored for 4 minutes and then the sensor tip surface was regenerated by adding 5 μl of 10 mM HCl twice. In this way, a binding reaction curve (sensorgram) for Compound 1 was obtained.
A general note: Surface plasmon resonance follows binding to a sensor surface in real time, without labels.
Consider B1, for which the binding result is on record as “binds”.
Take B2: the binding result is on record as “binds”.
Regarding B7, the binding result is listed as “binds”.
For the molecule B3, the binding result was “binds”.
With B4, the binding result is given as “binds”.
Same read-out and setting: as for B5, the entry is “binds”; as for B6, “binds”; as for B8, “binds”.
